Measurements as given in article PMC4871238 (Nature structural & molecular biology, 2015).

B2: Dictyostelium discoideum eIF6 (eukaryotic initiation factor 6), endogenous (natural protein)
chain: not shown

Key:
Assay in all cases: cryo-EM structure
[1] = biological target: B2
[2] = biological target: Dictyostelium discoideum ribosomal protein uL3 (L3) (Dictyostelium discoideum, UniProt P34113 1-398)
[3] = biological target: T1, human SBDS (Shwachman-Bodian-Diamond syndrome protein) (human, UniProt Q9Y3A5 1-250)
T1 sequence: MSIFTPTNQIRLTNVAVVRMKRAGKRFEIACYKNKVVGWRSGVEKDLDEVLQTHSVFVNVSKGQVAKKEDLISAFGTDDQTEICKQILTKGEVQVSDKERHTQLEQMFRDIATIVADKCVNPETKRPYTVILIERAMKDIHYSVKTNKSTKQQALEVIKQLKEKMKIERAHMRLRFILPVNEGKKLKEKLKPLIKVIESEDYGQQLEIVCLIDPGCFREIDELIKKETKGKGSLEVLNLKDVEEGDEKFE

Dictyostelium discoideum ribosomal protein uL3 (L3), sequence (P34113 whole entry): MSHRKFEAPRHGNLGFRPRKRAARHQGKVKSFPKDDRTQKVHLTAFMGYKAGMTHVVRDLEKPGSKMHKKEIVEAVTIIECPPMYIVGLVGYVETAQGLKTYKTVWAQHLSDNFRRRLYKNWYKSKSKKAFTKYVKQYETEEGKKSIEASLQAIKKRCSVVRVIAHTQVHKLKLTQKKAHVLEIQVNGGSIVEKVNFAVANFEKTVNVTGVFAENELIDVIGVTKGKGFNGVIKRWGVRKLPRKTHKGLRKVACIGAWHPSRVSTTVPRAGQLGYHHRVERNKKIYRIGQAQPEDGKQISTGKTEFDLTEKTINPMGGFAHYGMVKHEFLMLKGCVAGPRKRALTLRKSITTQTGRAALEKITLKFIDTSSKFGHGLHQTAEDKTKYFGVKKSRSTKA

B1: Dictyostelium discoideum ribosomal protein uL14 (L23) (natural protein)
chain: not shown
**Q.** Does B1 bind [1]?
**A.** binds

**Q.** Does B2 bind [2]?
**A.** binds

B3: Dictyostelium discoideum ribosomal protein eL24 (L24) (natural protein, UniProt Q54VN6 1-127, looked up)
chain: MKTSLCNYSEFKIYPARGMKFVRGDSKVFHFINTKVESLFFRKINPRDIRWSMVYRRIYKNTTTDVSAKKKARKTKKVERNIVGASLEVIQQKRAQKPEVKQAAAEQAKREIKEKKKAAAKKAAPKK
**Q.** Does B3 bind [1]?
**A.** binds

B4: Dictyostelium discoideum ribosomal protein uL16 (L10) (natural protein, UniProt Q54J69 1-217, looked up)
chain: MGRRPARCYRYCKNKPYIKSRYCRGVPDAKIRIFDLGRKKASTDEFPLCVHLISLEKEQLSSEAIEAGRISCNKYISKTGGKDSFHMRVRVHPWHVLRINKMLSCAGADRLQTGMRGAFGKPMGTVARVNIGQIIFSIRTRDNMLANVVEALRRSSYKFPGRQKIVVSKKWGFTAYNREAYQKLKADGRLMNDGANVKVITNHGTLAQYAKDIAAAN
**Q.** Does B4 bind [3]?
**A.** binds

B5: Dictyostelium discoideum ribosomal protein uL11 (L12) (natural protein)
chain: not shown
**Q.** Does B5 bind [3]?
**A.** binds
